Several values for one entry are separate records, joined by “and”; a condition that tells them apart may be missing. Equal values may be shown once.
How the values were obtained:
Type in all cases: biochemical
[1] = test system: R1-YRAH-R2 (Bz-PGGYRAHAG-OH) / H-RAHAK(DNP)-OH; assay: Zinc dependence of the transamidation reaction, A2C8 and K7F11, YRAH
Method: (§1) Model transamidation reactions were performed in a solution containing 15 to 250 μM acyl donor, 2 eq. of the corresponding acyl acceptor, varying concentrations of trypsin variant, 100 mM HEPES/NaOH pH 7.8, ±0.1 mM ZnC12, 100 mM NaCl, 10 mM CaCl2) at 30° C. Acyl donor and acyl acceptor had the same amino acids in P1′-P3′ position, e.g. Bz-[…]+H-RAHAK-OH or Bz-[…]+H-RKKAK-OH. Variations are indicated. The acyl acceptor could be equipped with a 2,4-Dinitrophenyl group (DNP) at the side chain of the terminal lysine, e.g. H-RAHAK(DNP)-OH or H-RKKAK(DNP)-OH. The reactions were started by the addition of enzyme. To record the time course of product formation and/or for kinetic evaluation of the reaction several aliquots of the reaction mixture were quenched with 25% (v/v) acetic acid at distinct time points within up to 4 hours. The composition of the reaction mixture was analyzed by UPCL with method I or II, depending on the absence (method 1) or presence (method II) of a 2,4-dinitrophenyl group within the acyl acceptor (see example 1). Measurements were performed as duplicates and errors were less than 5%.

[2] = test system: R1-YRKH-R2 (Bz-PGGYRKHAG-OH) / H-RKHAK(DNP)-OH; assay: Zinc dependence of the transamidation reaction, A2C8 and K7F11, YRKH; settings: 100 μM acyl donor, 200 μM acyl acceptor
Method: as §1

[3] = test system: Bz-PGGYRKKAG-OH (acyl donor) / H-RKKAK-OH (acyl acceptor); assay: Model transamidation at high and low substrate concentrations, A2C8 and K7F11; settings: for product yield (%) / kcat, AL^app (mkat/mol) / kcat, AL^app/kcat, HL^app / kcat, HL^app (mkat/mol): no ZnCl2
Method: as §1
The suitability of variant A2C8 and K7F11 as transamidases was further investigated in comparison to the native Trypsiligase II. Therefore the enzymatic parameters for the catalyzed transamidation reaction were determined by a model transamidation reaction using peptide substrates with the preferred recognition motive. In addition the model transamidation reaction was performed at high (250 μM) and low (15 μM) substrate concentrations to check, whether the new biocatalysts could also efficiently catalyze the desired reaction at low substrate concentration, which is a crucial requirement for the modification of therapeutic proteins. […] It was assumed that an improved transamidation activity is reached by introducing mutations which improve the affinity of the biocatalyst for the nucleophilic peptide and/or reduce its hydrolysis activity. Therefore corresponding experimental data describing both parameters for the native Trypsiligase II as well as variant A2C8 were determined.

[4] = test system: Bz-PGGXaaXaaXaaXaaAG-OH (acyl donor) / H-XaaXaaXaaAK(DNP)-OH (acyl acceptor); assay: Substrate specificity of variants (FIG. 2, FIG. 4)
Method: FIG. 2: Substrate specificity data of chosen variants identified during phage-display selection and screening out of Trypsiligase II-library. 100 μM acyl donor (Bz-PGGXaaXaaXaaXaaAG-OH); 200 μM acyl acceptor (H-XaaXaaXaaAK(DNP)-OH); 1-5 μM enzyme variant; 100 mM HEPES pH7.8, 100 mM NaCl, 10 mM CaCl2, 0.1 mM ZnCl2, T=30° C. UPLC analysis: Waters Acquity Ultra Performance LC, C18-column, gradient 5-60% acetonitrile, 5 min, detection at 360 nm; (k_(cat,AL)^app): apparent turnover rate for the aminolysis reaction. Amino acid variation of acyl donor/acyl acceptor pairs at Xaa-positions are indicated at the y-axis, e.g. YRAH relates to the acyl donor Bz-[…]-OH with the corresponding acyl acceptor H-RAHAK(DNP)-OH.
FIG. 4: Substrate specificity data of chosen variants identified during phage-display selection and screening out of Trypsiligase II-library. […]
Model transamidation reactions were performed in a solution containing 15 to 250 μM acyl donor, 2 eq. of the corresponding acyl acceptor, varying concentrations of trypsin variant, 100 mM HEPES/NaOH pH 7.8, ±0.1 mM ZnC12, 100 mM NaCl, 10 mM CaCl2) at 30° C. […] The composition of the reaction mixture was analyzed by UPCL with method I or II, depending on the absence (method 1) or presence (method II) of a 2,4-dinitrophenyl group within the acyl acceptor (see example 1). […]

[5] = molecular target: T1, Bz-AAYRAHAG-OH (acyl donor) / H-RAHAK(DNP)-OH (acyl acceptor) (Rattus norvegicus, UniProt P00763, D194K/K66E/Y45H/Y65H); assay: Zinc dependence of the transamidation reaction, Trypsiligase II
T1 construct: monomeric enzyme species (about 24 kDa); made in house; host or cells: Pichia pastoris X-33 (pPICZalphaA, secreted)
T1 sequence (P00763 24-246 Y45H/Y65H/K66E/D194K): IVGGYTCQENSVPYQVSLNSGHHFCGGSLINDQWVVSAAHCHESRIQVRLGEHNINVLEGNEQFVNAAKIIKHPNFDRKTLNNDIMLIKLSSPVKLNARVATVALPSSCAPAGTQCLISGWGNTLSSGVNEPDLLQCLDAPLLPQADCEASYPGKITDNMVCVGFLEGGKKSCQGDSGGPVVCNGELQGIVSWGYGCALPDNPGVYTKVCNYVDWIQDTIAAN
Method: as §1

[6] = molecular target: T2, Bz-PGGYRAHAG-OH (acyl donor) / H-RAHAK(DNP)-OH (acyl acceptor) (Rattus norvegicus, UniProt P00763, D194K/K66E/Y45H/Y65H); assay: Maximum product yield of transamidation (Table 7); settings: Zinc ions (100 μM): yes; two equivalents of acyl acceptor and 250 μM acyl donor
T2 construct: made in house; host or cells: Pichia pastoris X-33
T2 sequence (P00763 24-246 Y45H/Y65H/K66E/D194K): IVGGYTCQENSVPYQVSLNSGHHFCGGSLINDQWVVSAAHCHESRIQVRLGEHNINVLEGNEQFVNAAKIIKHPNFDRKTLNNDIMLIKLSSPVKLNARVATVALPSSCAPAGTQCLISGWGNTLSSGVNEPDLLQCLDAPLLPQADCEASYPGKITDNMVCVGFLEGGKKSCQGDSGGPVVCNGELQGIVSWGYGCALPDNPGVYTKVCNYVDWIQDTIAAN
Method: as §1

[7] = R1-YRAH-R2, 100 μM acyl donor, 200 μM acyl acceptor, absence of zinc ions
[8] = low substrate concentration (15 μM)
[9] = R1-YRAH-R2, 250 μM acyl donor, 500 μM acyl acceptor, absence of zinc ions

B1: A2C8: Trypsiligase II + H40F, A55A, R96E, K97D, L99F, N143E, E151Y, S190V, Q192A, S214G, G219Q, A221T (protein)
chain: IVGGYTCQENSVPYQVSLNSGHFFCGGSLINDQWVVSAAHCHESRIQVRLGEHNINVLEGNEQFVNAAKIIKHPNFDEDTFNNDIMLIKLSSPVKLNARVATVALPSSCAPAGTQCLISGWGETLSSGVNYPDLLQCLDAPLLPQADCEASYPGKITDNMVCVGFLEGGKKVCAGDSGGPVVCNGELQGIVGWGYQCTLPDNPGVYTKVCNYVDWIQDTIAAN
- dependence for zinc ions ([1]; A2C8: substrates with YRAH and YRKH sequence, K7F11: YRAH substrate only): no dependence for zinc ions
- kcat, AL^app + Zn^2+ (mkat/mol) ([1]; R1-YRAH-R2, 100 μM acyl donor, 200 μM acyl acceptor, 2 μM trypsin variant, 0.1 mM ZnCl2): 9.46 mkat/mol
- product yield + Zn^2+ (%) ([1]; R1-YRAH-R2, 100 μM acyl donor, 200 μM acyl acceptor, 0.1 mM ZnCl2): 53.3%
- kcat, AL^app − Zn^2+ (mkat/mol) [1, 7]: 14.51 mkat/mol
- product yield − Zn^2+ (%) [1, 7]: 50.4%
- kcat, AL^app + Zn^2+ (mkat/mol) ([2]; 0.1 mM ZnCl2): 8.42 mkat/mol
- product yield + Zn^2+ (%) ([2]; 0.1 mM ZnCl2): 55.0%
- kcat, AL^app − Zn^2+ (mkat/mol) ([2]; absence of zinc ions): 16.92 mkat/mol
- product yield − Zn^2+ (%) ([2]; absence of zinc ions): 57.6%
- product yield (%) ([3]; [Substrate] 15 μM Bz-PGGYRKKAG-OH, 30 μM H-RKKAK-OH): 46% and 46.2%
- kcat, AL^app (mkat/mol) ([3]; [Substrate] 15 μM): 10.68 mkat/mol
- kcat, AL^app/kcat, HL^app ([3]; [Substrate] 15 μM): 7.4
- kcat, HL^app (mkat/mol) ([3]; [Substrate] 15 μM): 1.44 mkat/mol
- product yield (%) ([3]; [Substrate] 250 μM Bz-PGGYRKKAG-OH, 500 μM H-RKKAK-OH): 64.9%
- kcat, AL^app (mkat/mol) ([3]; [Substrate] 250 μM): 71.61 mkat/mol
- kcat, AL^app/kcat, HL^app ([3]; [Substrate] 250 μM): 70 and 70.9
- kcat, HL^app (mkat/mol) ([3]; [Substrate] 250 μM): 1.01 mkat/mol
- apparent turnover rate of aminolysis relative to hydrolysis [3, 8]: sevenfold higher apparent turnover rate
- fold higher product yield than the native Trypsiligase II [3, 8]: 14
- acceptance of LRKH as acyl donor [4]: accepts LRKH as acyl donor
- substrate sequence with highest activity [4]: highest activity for YRKK substrate sequence

B2: Trypsiligase II (trypsin variant Y39H/Y59H/K60E/D189K) (protein)
chain: IVGGYTCQENSVPYQVSLNSGHHFCGGSLINDQWVVSAAHCHESRIQVRLGEHNINVLEGNEQFVNAAKIIKHPNFDRKTLNNDIMLIKLSSPVKLNARVATVALPSSCAPAGTQCLISGWGNTLSSGVNEPDLLQCLDAPLLPQADCEASYPGKITDNMVCVGFLEGGKKSCQGDSGGPVVCNGELQGIVSWGYGCALPDNPGVYTKVCNYVDWIQDTIAAN
- dependence for zinc ions [5]: strong dependence for zinc ions
- reduction of the product yield in the absence of zinc ions (factor) [5]: 4
- kcat, AL^app + Zn^2+ (mkat/mol) ([5]; R1-YRAH-R2, 250 μM acyl donor, 500 μM H-RAHAK(DNP)-OH, 2 μM trypsin variant, 0.1 mM ZnCl2): 11.19 mkat/mol
- product yield + Zn^2+ (%) ([5]; R1-YRAH-R2, 250 μM acyl donor, 500 μM acyl acceptor, 0.1 mM ZnCl2): 18% and 18.1%
- kcat, AL^app − Zn^2+ (mkat/mol) [5, 9]: 0.89 mkat/mol
- product yield − Zn^2+ (%) [5, 9]: 4% and 4.2%
- drop of apparent turnover rate for the aminolysis reaction in the absence of zinc ions (factor) ([5]; YRAH): 12
- product yield (%) [6]: 18.1%

— patent US20220235344A1, “TRYPSIN VARIANTS WITH IMPROVED ENZYMATIC PROPERTIES” (BIOPHARMA TRANSLATIONSINSTITUT DESSAU FORSCHUNGS GMBH, priority 2018, published 2022)
